Assay results: PMC8965487

biological target: Cy5-labeled extracellular domain of human Angiotensin-Converting Enzyme 2 (ACE2) (UniProt Q9BYF1); settings: parent: est. 0; read off a plot

Substance | other: Log2 EC50 (WT/MT)
SARS-CoV-2 wild-type Spike S1+S2 D614G | 0.45
SARS-CoV-2 wild-type Spike S1 T20N; D614G | 0.2
SARS-CoV-2 wild-type Spike S1 N234Q | -0.05
SARS-CoV-2 wild-type Spike S1 HV69-70 del; N501Y; D614G | -0.05
SARS-CoV-2 wild-type Spike S1 A222V; D614G | -0.1
SARS-CoV-2 wild-type Spike S1 D614G | -0.05
SARS-CoV-2 wild-type Spike S1 L18F; D614G | 0.35
